Reference: the supplement of paper PMC10567573
± gives the standard deviation.

Assay: protein stability index of a GFP-peptide fusion (GPS, HEK-293T) (PSI 1-6); higher = more stable
Settings: c terminus: a fixed tail appended
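Also: 24-mer peptide tiles fused after GFP, lentivirally expressed, FACS-sorted into six equal bins by GFP/DsRed ratio, decoded by Illumina sequencing, PSI is the read-weighted mean bin number.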

Row | Sequence | protein stability index (treatment: DMSO) | protein stability index (treatment: MLN4924 1 uM, 8 h)
1 | DYLSGVLILASELSRLSVNSVTAG [TSN] | 3.54 ± 0.61 | 2.68 ± 0.4
2 | QPPRFPVPHNGSSEATLPAQMSTL [PDLIM4] | 4.67 ± 0.19 | 4.83 ± 0.089
3 | RAAQLQHSEKMAQYLEEERHMREE [CCDC6] | 5.15 ± 0.25 | 5 ± 0.46
4 | PCASLLAFASTCLLSRFSVGIFHL [TMEM175] | 3.43 ± 0.076 | 3 ± 0.3
5 | HNQKVHMHMVDLMSSIICEGDTVS [PDS5B] | 2.46 ± 0.17 | 2.64 ± 0.26
6 | CSRPSGSSSSSGVLMVGPNFRVGK [CSNK1G1] | 3.63 ± 0.47 | 3.74 ± 0.62
7 | VPVHSFASLNIKTTVPEVEPPQDS [PRPH] | 4.97 ± 0.2 | 4.99 ± 0.073
8 | AIQDQLPRLQQLLKTLEEGLEGLE [FANCE] | 3.61 ± 0.32 | 3.68 ± 0.23
9 | MQNGAGASRTSTIFLNGNRERPLN [TNXB] | 3.7 ± 0.49 | 4.06 ± 0.2
10 | GSAGRLLAVGTDLYGQRNSAPEQE [GFOD1] | 4.61 ± 0.44 | 4.79 ± 0.21
11 | GGKSGGIVISPFRLEELTNRLASL [CCDC6] | 2.58 ± 0.33 | 2.69 ± 0.22
12 | QGTELWVAERGTTQGCHPAWEPRS [ZNF8] | 3.24 ± 0.16 | 3.1 ± 0.27
13 | DFGLAARLEPLEHRRRTICGTPNY [PLK2] | 3.17 ± 0.28 | 3.13 ± 0.21
14 | FNKPSRVPAPEAFRDPIWSTWALY [MYORG] | 2.23 ± 0.46 | 2.25 ± 0.47
15 | TRIHILPSMNPDGYEVAAAQGPNK [CPN1] | 4.13 ± 0.25 | 4.06 ± 0.27
16 | HIGHVGWDPNTGFDLNNLDPELKN [WASL] | 4.42 ± 0.24 | 4.47 ± 0.32
17 | MMHGGSYSLTTSSTHKRSSLRKVK [RAB40B] | 4.15 ± 0.25 | 4.35 ± 0.15
18 | GAGAVSRTCTAPLDRLKVLMQVHA [SLC25A25] | 2.32 ± 0.48 | 2.41 ± 0.14
19 | YALDMQQSNLEPLSPMTASSFLSF [FEM1A] | 2.6 ± 0.23 | 2.47 ± 0.085
20 | ISEEIQMSTKESDFLCLLGVSYTF [MIA2] | 2.4 ± 0.45 | 2.76 ± 0.92
21 | IKPNEILPPEKGREVAKELGIPYY [RHOBTB2] | 3.73 ± 0.14 | 3.79 ± 0.12
22 | ALLWLSCSIALLRALATSNARAQQ [GNAS] | 3.21 ± 0.51 | 2.99 ± 0.25

Row | Sequence | protein stability index (treatment: DMSO) | protein stability index (treatment: MLN4924 1 uM, 8 h)
23 | FSHEILRDEESFFGERRIPRGRRI [ALKBH7] | 3.34 ± 0.4 | 3.84 ± 0.4
24 | IIRNVGKYREAARLEINVLKKIKE [CLK3] | 2.68 ± 0.51 | 2.33 ± 0.27
25 | KIFVENLRRQKSLRLEWETQQELR [IQUB] | 2.69 ± 0.43 | 2.93 ± 0.46
26 | YSIGRSVEGRHLYVLEFSDHPGIH [CPN1] | 2.07 ± 0.23 | 2.07 ± 0.12
27 | PAAAPEGDWARLLEQMGALAVRGS [ZBED3] | 3.62 ± 0.3 | 3.59 ± 0.37
28 | TRSKSDPVLHPSEERAAPVLSCEA [FAM189A2] | 5.49 ± 0.25 | 5.61 ± 0.15
29 | NSEVYLPNINKISMQAVLDYLYTK [RHOBTB1] | 2.17 ± 0.29 | 2.35 ± 0.16
30 | KSVQGTGLAFIAFTEAMTHFPASP [SLC6A17] | 2.19 ± 0.49 | 2.22 ± 0.12
31 | LTADSRKSHLIFPQPNYADTLISQ [PCDHGA10] | 3.17 ± 0.17 | 3.11 ± 0.27
32 | VMSEGLGMRYAFIGPLETMHLNAE [CRYL1] | 2.05 ± 0.23 | 2.05 ± 0.4
33 | AKVGPGLPDGCQPLQLLREMRQAL [CBY2] | 2.73 ± 0.57 | 2.82 ± 0.33
34 | GATAASETLSGHGPLAQPLTLQVL [ADAMTS4] | 3.28 ± 0.29 | 3.19 ± 0.36
35 | SLFSPVTEDSPLGTVVALLNVHDL [PCDHGA10] | 2.31 ± 0.2 | 2.32 ± 0.3
36 | DFYEAMDDYTSAIEVQPNFEVPYY [TTC32] | 2.64 ± 0.23 | 2.84 ± 0.3
37 | LSLQDQVDTLTFQSQSLRDRARRF [MTUS2] | 3.91 ± 0.26 | 3.84 ± 0.18
38 | DCPMDSSSSRDTDWVVVKEPVIKV [PI4K2A] | 3.6 ± 0.4 | 4 ± 0.53
39 | IRLMQRCWQGDPRVRPTFQEITSE [RIPK4] | 2.798 ± 0.002 | 2.78 ± 0.45
40 | MIVDLLSEKKTISFQGCMAQLFMD [OR4A15] | 2.74 ± 0.52 | 2.42 ± 0.46
41 | DFMELGRSIPDTQLEQVIESQKAN [ACSBG2] | 5.16 ± 0.26 | 4.99 ± 0.26
42 | QCRDLVDEAKKFHLRPELRSQMQG [KLHL12] | 3.38 ± 0.18 | 3.53 ± 0.13
43 | EAVAGAEGREAPALVAAGGAPEDD [DENND6A] | 5.63 ± 0.16 | 5.74 ± 0.12
44 | QQLHQLPRGRLDLATQSLTVETCR [LRRC45] | 4.04 ± 0.23 | 3.9 ± 0.32
